Laboratory results taken from patent US20050142568A1 (published 2005).

Molecular target: T1, GST-CRN-3 (C. elegans, UniProt G5EBX6 1-876)
T1 construct: also called CRN-3 GST-fusion protein; not shown: glutathione S-transferase tag encoded by vector pGEX4T-2
T1 sequence: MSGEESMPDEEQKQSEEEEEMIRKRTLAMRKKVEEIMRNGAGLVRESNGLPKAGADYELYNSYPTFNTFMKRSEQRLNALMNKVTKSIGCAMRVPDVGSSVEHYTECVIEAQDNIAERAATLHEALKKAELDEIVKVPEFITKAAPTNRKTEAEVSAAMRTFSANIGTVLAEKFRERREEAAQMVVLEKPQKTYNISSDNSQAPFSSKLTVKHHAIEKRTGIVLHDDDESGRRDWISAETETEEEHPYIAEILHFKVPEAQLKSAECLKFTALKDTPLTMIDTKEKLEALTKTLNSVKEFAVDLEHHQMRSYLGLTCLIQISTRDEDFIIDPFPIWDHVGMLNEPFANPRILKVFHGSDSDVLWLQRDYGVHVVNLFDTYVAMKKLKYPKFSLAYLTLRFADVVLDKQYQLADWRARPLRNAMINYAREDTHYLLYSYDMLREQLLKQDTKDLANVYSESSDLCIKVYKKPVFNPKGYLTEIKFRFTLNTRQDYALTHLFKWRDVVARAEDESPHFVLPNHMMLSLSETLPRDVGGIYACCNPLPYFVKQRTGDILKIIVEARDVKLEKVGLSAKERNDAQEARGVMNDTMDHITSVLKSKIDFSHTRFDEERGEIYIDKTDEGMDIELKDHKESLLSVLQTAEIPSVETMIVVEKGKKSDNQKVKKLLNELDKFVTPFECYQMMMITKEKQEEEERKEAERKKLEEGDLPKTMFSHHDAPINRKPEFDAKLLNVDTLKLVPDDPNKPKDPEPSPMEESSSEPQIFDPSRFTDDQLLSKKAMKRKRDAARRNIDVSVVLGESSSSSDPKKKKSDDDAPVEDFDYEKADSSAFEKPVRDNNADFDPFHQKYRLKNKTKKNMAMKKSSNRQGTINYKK
Assay: GST pull-down, 35S-Met protein vs GST fusion; - means no detectable binding (footnote a)
How it was run: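 GST alone or GST fusions (5 μg) on glutathione beads incubated 2 hours at 4° C. with in vitro translated ³⁵S-Met-labeled proteins; bound protein by 12% SDS-PAGE and autoradiography. Scored against background binding of ³⁵S-luciferase to GST fusions and of labeled proteins to GST.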

binding result: no binding
B1: ^35S-Methionine labeled CRN-2 (enzyme, C. elegans)
chain: MALYELVDIGANLGHPSYQKDLNDVLDRAKQAGLSKIMVTGTSEKISHECADLVEKYPGFLYFTAGVHPHDAKDWNDGTLEALKKLQENPSCVAVGECGLDFNRNFSPQDVQKEVFAKQVDMAVKLQKPLFIHEREAHEDMVKILTAAGPSLPPAVIHCFTGTVVEAKKYLEMGFYIGLTGFLWKDRSDNGVQAGLRSGEIPIEKLVLETDAPYMYPKINDKKIPKEIKSLITPETEALHNFSSFNRNEPCSLAAVCELVAAFAGRDPKEVAKITTENAKKVYKLE
